Experimental data published in the RNAGym collection of RNA variant scans (doi:10.7554/elife.80360).

B1: CPEB3 Ribozyme (parent)
chain: GGGGGCCACAGCAGAAGCGUUCACGUCGCGGCCCCUGUCAGAUUCUGGUGAAUCUGCGAAUUCUGCUGU

Variants of: B1
Assay: self-cleavage, relative activity (ratio to wild type); higher = more cleavage; co-transcriptional

Variant | self-cleavage
C7A A60U | 0.225
C7A A60C | 0.152
C7A U67C | 0.807
C7A G56A | 0.34
C7A G56C | 0.243
C7U A10U | 0.981
C7U A10C | 0.994
C7U A10G | 0.947
C7U A40G | 0.934
C7U A40C | 0.282
C7U A40U | 0.683
C7G U46C | 0.38
C7G U46A | 0.453
C6U U69G | 1.04
C6U U69A | 1.05
C7A C54A | 0.318
C7A C54U | 0.614
C7U A52C | 0.914
C6U U53A | 0.977
C6U U53C | 0.914
C6U U53G | 0.719
C6U U26C | 0.893
C6U U26A | 0.833
C7A U49A | 0.601

Variant | self-cleavage
C7A U49G | 0.409
C7A U49C | 0.601
C7G C39U | 0.326
C7G C39A | 0.141
C7G C39G | 0.236
C7G A40U | 0.161
C7G A40G | 0.376
C7G | 0.497
C7U | 0.968
C7A | 0.643
C7U C9A | 1.05
C7U C9U | 1.06
C7U C9G | 1.01
C7U A13C | 0.871
C7U A13G | 0.936
C7A G25A | 0.163
C7A G25C | 0.144
C7A G25U | 0.111
C7A G58U | 0.645
C7A G58A | 0.338
C7A U44C | 0.432
C7A U44G | 0.305
C6U G50A | 0.982
C7U C18A | 0.165

Variant | self-cleavage
C7U C18U | 0.702
C7A U38C | 0.221
C7A U38A | 0.191
C7G G28U | 0.0797
C7A U46C | 0.587
C7A U46G | 0.654
C7G A13G | 0.238
C7G A13U | 0.122
C7A U21G | 0.077
C7A U21C | 0.266
C7A U21A | 0.576
C7A G11U | 0.315
C7A G11A | 0.401
C7G U55G | 0.119
C7G U55A | 0.124
C7G U55C | 0.185
C6U U67G | 0.995
C7G G14C | 0.0631
C7G G14U | 0.0864
C7A U20G | 0.127
C7A U20A | 0.0917
C7A U20C | 0.211
C7A G14U | 0.131
C7A G14A | 0.167

Variant | self-cleavage
C7A G14C | 0.137
C6U U49C | 1.02
C7G G47A | 0.452
C7U A23G | 0.909
C7U A23C | 0.87
C7U A23U | 0.955
C6U U62G | 0.783
C6U U62A | 0.873
C7G U62G | 0.244
C7G U62C | 0.285
C7G G68U | 0.808
C7G G68A | 0.824
C7A G30U | 0.9
C7A G30A | 0.826
C7A G30C | 0.661
C7G G30U | 0.564
C7A A16U | 0.222
C6U U64G | 0.92
C6U U64A | 0.853
C6U U64C | 0.829
C7G A51U | 0.34
C7G A51C | 0.306
C7G A51G | 0.455
C7A C24U | 0.192

Variant | self-cleavage
C7A C24G | 0.0158
C7A C24A | 0.161
C7G U44G | 0.252
C7G U44A | 0.28
C7G U44C | 0.282
C7A C35G | 0.156
C7A C35U | 0.222
C7G G31A | 0.45
C7G G31U | 0.521
C7G G31C | 0.101
C7G G17A | 0.11
C7A C22G | 0.0999
C7A G28A | 0.128
C7A G28C | 0.11
C7A G28U | 0.128
C7A G41C | 0.146
C7A G68A | 0.984
C7A G68U | 0.937
C6U G65U | 0.719
C6U G65C | 0.636
C6U U21G | 0.329
C6U U21C | 0.827
C7A C9G | 0.639
C7A C9U | 0.934

Variant | self-cleavage
C7A A8U | 0.769
C7A A8G | 0.8
C7G U49G | 0.469
C7A C29G | 0.12
C7A C29U | 0.261
C7A C66A | 0.354
C7A C66G | 0.42
C7A C66U | 0.697
C7G A59G | 0.307
C6U U46C | 1
C6U U46A | 0.944
C6U U46G | 0.987
C7G U21C | 0.173
C7G C54A | 0.138
C7G C54G | 0.17
C7G C54U | 0.507
C7A U55C | 0.208
C7A U55A | 0.333
C7A U55G | 0.194
C7G U36G | 0.147
C7G U36C | 0.0551
C7G C22U | 0.128
C7G G19U | 0.0728
C7G G19A | 0.0606

Variant | self-cleavage
C7A A59G | 0.469
C7A A59U | 0.157
C7U A59C | 0.403
C7U A59U | 0.554
C7U A59G | 0.93
C6U U38C | 0.929
C6U U38G | 0.12
C7A A52C | 0.412
C7A A52U | 0.466
C7A C33U | 0.489
C7A C33A | 0.119
C7A C33G | 0.226
C7A C34U | 0.487
C7A C34G | 0.136
C7A C34A | 0.106
C7A U61C | 0.232
C7A U61G | 0.378
C7U A8C | 0.954
C7U A8U | 0.945
C7U A8G | 0.918
C7G A42G | 0.306
C7G A42C | 0.198
C7G C9A | 0.898
